This passage reports Kd, koff and kon results from US12458691.

Test [1] deals with His-tagged fusion peptide (residue 512-521) (HIV-1 strain BG505). Description: SPR, Fab over His-tagged fusion peptide on Ni-NTA chip, 1:1 fit. (In SPR one partner is held on a chip, and binding of the other changes the refractive index at the surface.)
Test [2] concerns the target FP8-KLH (HIV-1 strain BG505). Description: BLI (Octet), IgG on the sensor, apparent KD with IgG avidity. A general note: BLI is a label-free optical method that tracks binding on a fibre tip over time.
In test [3] the target is FP8-3HSH (HIV-1 strain BG505). Description: apparent KD; Octet BLI, antibody IgG on sensor (method per paragraph 361).
Test [4] deals with FP8-1Y12 (HIV-1 strain BG505). The description is as above.
Test [5] deals with FP8-3HSH (HIV-1 strain BG505). Description: BLI (Octet), IgG on the sensor, apparent KD with IgG avidity.
Test [6] deals with FP8-1Y12 (HIV-1 strain BG505). The test is described as above.
The target in test [7] is FP-LS (Aquifex aeolicus (strain VF5)) (UniProt O66529). Description: apparent KD (table head 'Apparent KD value (nM)'); Octet BLI with IgG on the sensor per paragraph 361.
Sequence of FP-LS (Aquifex aeolicus (strain VF5)) (O66529 other isoform, or with tags, fused parts or gaps): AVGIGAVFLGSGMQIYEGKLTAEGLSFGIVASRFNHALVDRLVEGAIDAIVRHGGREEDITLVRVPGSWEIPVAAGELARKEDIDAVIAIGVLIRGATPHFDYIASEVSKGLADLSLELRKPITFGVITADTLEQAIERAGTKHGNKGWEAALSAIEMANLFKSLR
Test [8] addresses FP8-TTHc (MBS activation, 1:1 molar ratio) (HIV-1 strain BG505). Description: Octet, purified conjugate.
For test [9], the target named is FP8-TTHc (sulfo-SIAB activation, 1:1 molar ratio) (HIV-1 strain BG505). The experiment in a line: Octet, purified conjugate.
Sequence of FP8-TTHc (sulfo-SIAB activation, 1:1 molar ratio) (HIV-1 strain BG505) (P04958 865-1315, tags left off): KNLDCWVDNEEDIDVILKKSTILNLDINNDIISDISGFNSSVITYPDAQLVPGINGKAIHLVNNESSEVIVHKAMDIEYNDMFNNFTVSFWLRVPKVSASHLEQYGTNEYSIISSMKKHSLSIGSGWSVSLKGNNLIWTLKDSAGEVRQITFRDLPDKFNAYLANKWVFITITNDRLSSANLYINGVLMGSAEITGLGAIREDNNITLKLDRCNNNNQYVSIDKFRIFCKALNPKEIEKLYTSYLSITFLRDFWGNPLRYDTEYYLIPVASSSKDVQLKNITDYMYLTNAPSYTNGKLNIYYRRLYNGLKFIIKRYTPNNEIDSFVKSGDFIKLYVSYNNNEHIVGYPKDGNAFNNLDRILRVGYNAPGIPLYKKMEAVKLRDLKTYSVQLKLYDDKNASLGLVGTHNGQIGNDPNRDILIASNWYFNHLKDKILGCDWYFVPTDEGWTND
Test [10] concerns the target FP8-TTHc (sulfo-SIAB activation, 0.5:1 molar ratio) (HIV-1 strain BG505). The experiment in a line: Octet, purified conjugate.

A word on the koff: it is a measure of how fast the partners let go of each other. In general, kon refers to the second-order rate constant of association. Low values mean slower complex formation, high ones faster complex formation.

Sequence of FP8-KLH (HIV-1 strain BG505) (Q10583 17-3414): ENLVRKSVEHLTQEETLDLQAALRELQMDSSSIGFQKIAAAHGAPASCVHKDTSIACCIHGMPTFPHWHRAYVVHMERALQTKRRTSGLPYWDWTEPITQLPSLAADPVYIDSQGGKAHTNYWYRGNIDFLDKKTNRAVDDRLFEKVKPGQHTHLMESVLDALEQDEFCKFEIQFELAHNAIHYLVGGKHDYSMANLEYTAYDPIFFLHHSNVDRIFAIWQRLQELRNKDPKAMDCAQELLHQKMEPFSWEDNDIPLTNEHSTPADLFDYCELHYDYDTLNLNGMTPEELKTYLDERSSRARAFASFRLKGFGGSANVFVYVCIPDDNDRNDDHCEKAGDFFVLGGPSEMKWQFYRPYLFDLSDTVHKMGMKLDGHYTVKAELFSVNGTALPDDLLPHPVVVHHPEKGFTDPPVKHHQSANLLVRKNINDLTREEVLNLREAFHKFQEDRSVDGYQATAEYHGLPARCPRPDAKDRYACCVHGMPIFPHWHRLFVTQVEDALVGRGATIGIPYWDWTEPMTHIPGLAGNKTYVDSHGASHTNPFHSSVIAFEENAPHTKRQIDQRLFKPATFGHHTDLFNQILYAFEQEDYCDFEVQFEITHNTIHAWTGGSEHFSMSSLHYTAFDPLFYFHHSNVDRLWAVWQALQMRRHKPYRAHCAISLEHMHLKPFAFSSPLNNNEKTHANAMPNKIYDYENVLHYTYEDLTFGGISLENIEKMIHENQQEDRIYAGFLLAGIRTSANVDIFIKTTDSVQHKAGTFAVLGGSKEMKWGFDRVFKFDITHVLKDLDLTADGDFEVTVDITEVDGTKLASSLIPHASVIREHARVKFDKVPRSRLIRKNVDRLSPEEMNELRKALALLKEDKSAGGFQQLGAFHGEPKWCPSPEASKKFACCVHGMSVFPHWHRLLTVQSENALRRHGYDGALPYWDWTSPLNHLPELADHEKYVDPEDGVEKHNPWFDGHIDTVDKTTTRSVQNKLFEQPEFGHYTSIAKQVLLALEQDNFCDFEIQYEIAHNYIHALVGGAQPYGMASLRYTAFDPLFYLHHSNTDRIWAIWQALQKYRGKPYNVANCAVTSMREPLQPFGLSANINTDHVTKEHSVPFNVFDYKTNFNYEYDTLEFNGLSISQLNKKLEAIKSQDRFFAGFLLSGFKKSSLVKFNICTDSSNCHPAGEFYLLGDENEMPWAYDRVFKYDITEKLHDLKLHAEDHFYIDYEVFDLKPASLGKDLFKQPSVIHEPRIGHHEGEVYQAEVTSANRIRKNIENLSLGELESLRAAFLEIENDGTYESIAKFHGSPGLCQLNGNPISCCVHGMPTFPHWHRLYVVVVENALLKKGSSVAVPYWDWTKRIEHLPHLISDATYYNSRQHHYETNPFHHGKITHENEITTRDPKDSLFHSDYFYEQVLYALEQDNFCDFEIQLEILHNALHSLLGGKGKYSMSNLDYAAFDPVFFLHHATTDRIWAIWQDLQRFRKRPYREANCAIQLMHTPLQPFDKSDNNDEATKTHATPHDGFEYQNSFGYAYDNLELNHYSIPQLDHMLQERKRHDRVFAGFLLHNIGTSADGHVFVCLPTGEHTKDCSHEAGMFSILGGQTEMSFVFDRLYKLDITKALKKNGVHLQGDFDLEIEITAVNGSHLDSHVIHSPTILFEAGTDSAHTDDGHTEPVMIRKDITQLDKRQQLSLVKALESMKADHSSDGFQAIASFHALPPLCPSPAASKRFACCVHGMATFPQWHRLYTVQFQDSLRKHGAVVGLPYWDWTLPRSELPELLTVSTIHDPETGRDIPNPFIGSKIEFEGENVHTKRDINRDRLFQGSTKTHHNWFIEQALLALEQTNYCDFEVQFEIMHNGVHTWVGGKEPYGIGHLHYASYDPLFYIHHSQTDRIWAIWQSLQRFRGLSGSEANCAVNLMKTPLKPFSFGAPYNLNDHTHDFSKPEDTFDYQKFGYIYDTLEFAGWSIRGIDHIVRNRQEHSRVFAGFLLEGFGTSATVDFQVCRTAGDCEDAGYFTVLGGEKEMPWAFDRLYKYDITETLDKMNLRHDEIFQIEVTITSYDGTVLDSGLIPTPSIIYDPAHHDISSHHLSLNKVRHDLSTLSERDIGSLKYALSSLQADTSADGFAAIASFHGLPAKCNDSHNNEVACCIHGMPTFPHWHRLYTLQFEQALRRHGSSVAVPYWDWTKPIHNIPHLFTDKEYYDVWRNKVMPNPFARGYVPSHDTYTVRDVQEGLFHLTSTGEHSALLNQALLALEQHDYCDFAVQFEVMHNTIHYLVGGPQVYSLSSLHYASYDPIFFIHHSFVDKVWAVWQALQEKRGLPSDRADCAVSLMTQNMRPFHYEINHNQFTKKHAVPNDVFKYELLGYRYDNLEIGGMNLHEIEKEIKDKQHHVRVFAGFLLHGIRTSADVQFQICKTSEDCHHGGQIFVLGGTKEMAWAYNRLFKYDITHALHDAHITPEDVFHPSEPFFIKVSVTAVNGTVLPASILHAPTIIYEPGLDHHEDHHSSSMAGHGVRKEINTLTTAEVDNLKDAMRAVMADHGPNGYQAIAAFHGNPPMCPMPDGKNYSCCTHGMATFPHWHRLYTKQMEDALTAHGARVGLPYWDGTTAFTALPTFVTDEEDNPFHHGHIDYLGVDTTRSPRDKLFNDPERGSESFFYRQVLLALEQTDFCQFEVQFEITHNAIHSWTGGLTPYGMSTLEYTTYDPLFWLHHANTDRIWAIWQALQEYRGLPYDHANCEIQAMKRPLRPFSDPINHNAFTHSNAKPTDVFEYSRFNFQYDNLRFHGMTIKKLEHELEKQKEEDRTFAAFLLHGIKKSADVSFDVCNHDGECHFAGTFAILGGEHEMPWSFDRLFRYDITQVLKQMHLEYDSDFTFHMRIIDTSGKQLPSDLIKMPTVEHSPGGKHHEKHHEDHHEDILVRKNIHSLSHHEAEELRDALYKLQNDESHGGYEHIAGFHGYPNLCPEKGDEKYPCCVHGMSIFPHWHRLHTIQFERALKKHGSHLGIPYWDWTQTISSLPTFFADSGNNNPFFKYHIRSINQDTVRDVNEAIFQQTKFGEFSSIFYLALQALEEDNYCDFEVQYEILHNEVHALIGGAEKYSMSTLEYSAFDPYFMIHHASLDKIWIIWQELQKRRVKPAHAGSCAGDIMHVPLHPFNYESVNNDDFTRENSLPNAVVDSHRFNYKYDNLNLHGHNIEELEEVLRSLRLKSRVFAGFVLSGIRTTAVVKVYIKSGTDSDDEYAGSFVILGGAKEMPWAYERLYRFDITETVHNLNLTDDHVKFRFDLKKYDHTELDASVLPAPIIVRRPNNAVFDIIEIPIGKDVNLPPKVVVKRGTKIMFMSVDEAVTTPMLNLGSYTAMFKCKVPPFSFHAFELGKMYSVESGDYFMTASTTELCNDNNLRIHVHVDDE
Sequence of FP8-TTHc (sulfo-SIAB activation, 0.5:1 molar ratio) (HIV-1 strain BG505) (P04958 865-1315, tags left off): as the sequence (P04958 865-1315, tags left off) above
Sequence of FP8-TTHc (MBS activation, 1:1 molar ratio) (HIV-1 strain BG505) (P04958 865-1315, tags left off): as above

In [1], VRC34.01 Fab displayed a Kd of 6.17 nM, a koff of 0.00924 s⁻¹ and a kon of 1.5e+06 M⁻¹ s⁻¹.
ACS202 (antibody): the Kd in [2] was under 0.001 nM.
For PGT151 (antibody), the Kd is under 0.001 nM in [3]; under 0.001 nM in test [4]; 47.2 nM in test [5]; under 0.001 nM in test [6]; under 0.001 nM in [7]; 2.3 nM in test [8]. Moreover, the Kd in test [9] came out at 2.8 nM; in test [10], 3.6 nM.
